Experiment [1] has as its target SARS-CoV-2 Spike protein (SARS-CoV-2), P0DTC2. The experiment is described as follows: cell-based or functional assay.
For experiment [2] the target is unchanged. The experiment is described as follows: cell-based or functional assay. This is another data set of the same source.

Where two headings read alike, the source gives them in different places. No end group written: not given here.

B1: α/β-SARS2 HRC QE-15 (peptide)
peptide: DISQINASVVNIEYEIXKLEEVAXKLEESLIDLQELGSGSGC
modifications: not fully specified (C-terminus); also: α/β-peptide, β-residue positions not given here
B1 displayed an inhibition of S-mediated cell-cell fusion (β-Gal complementation), IC50 in experiment [1] of 50 nM.

B2: α/β-SARS2 HRC QE-17 (peptide)
peptide: DISQINASVVNIEYEIXKLEEVAXKLEESLIDLQELGSGSGC
modifications: not fully specified (C-terminus); also: α/β-peptide, β-residue positions not given here
With B2, the inhibition of S-mediated cell-cell fusion (β-Gal complementation), IC50 in experiment [1] is 10 nM.

B3: α/β-SARS2 HRC QE-8 (peptide)
peptide: DISQINASVVNIEYEIXKLEEVAXKLEESLIDLQELGSGSGC
modifications: not fully specified (C-terminus); also: α/β-peptide, β-residue positions not given here, alias: peg4 chol conjugate
In experiment [2], B3 came in with an inhibition of S-mediated cell-cell fusion (β-Gal complementation), IC50 of 100 nM.

B4: α/β-SARS2 HRC QE-7 (peptide)
peptide: DISQINASVVNIEYEIXKLEEVAXKLEESLIDLQELGSGSGC
modifications: not fully specified (C-terminus); also: α/β-peptide, β-residue positions not given here, alias: peg4 chol conjugate
B4: in experiment [2], the inhibition of S-mediated cell-cell fusion (β-Gal complementation), IC50 came out at 20 nM and the inhibition of S-mediated cell-cell fusion (β-Gal complementation), IC90 amounted to 100 nM. The inhibition of S-mediated cell-cell fusion (β-Gal complementation), IC50 in experiment [1] turned out to be 10 nM.

B5: α/β-SARS2 HRC QE-5 (peptide)
peptide: DISQINASVVNIEYEIXKLEEVAKKLEESLIDLQELGSGSGC
modifications: not fully specified (C-terminus); also: α/β-peptide, β-residue positions not given here, alias: peg4 chol conjugate
For the molecule B5, in experiment [2], the inhibition of S-mediated cell-cell fusion (β-Gal complementation), IC50 worked out at 1000 nM.

B6: α/β-SARS2 HRC QE-6 (peptide)
peptide: DISQINASVVNIEYEIKKLEEVAXKLEESLIDLQELGSGSGC
modifications: not fully specified (C-terminus); also: α/β-peptide, β-residue positions not given here, alias: peg4 chol conjugate
In experiment [2], B6 gave an inhibition of S-mediated cell-cell fusion (β-Gal complementation), IC50 of 20 nM and an inhibition of S-mediated cell-cell fusion (β-Gal complementation), IC90 of 100 nM.

Values taken from patent US20260232759A1, “PEPTIDES THAT INHIBIT INFECTION BY SARS-COV-2, THE VIRUS THAT CAUSES COVID-19 DISEASE” (Wisconsin Alumni Research Foundation, priority 2021, published 2026).
